# Test results: US5766897A, “Cysteine-pegylated proteins” (Incyte Pharmaceuticals, Inc., priority 1995, dated 1998)
# How the values were obtained:
# [1] = test system: human neutrophil elastase; assay: second-order association rate constant vs elastase; format: biochemical
# Experimental: Refolded or soluble protein was tested for capacity to inhibit thrombin in a standard assay. Briefly, serial 2-fold dilutions of PN-1 variant were added to microtiter plate wells (50 μl/well), followed by 50 μl of a 30 μg/ml heparin solution, followed by 1 NIH unit of thrombin in 50 μl. These were allowed to incubate at 25° C. for 15 minutes. Residual thrombin activity was measured by the addition of 50 μl S-2238 (Kabi Pharmaceuticals) at 0.625 mg/ml. […]
# The second-order rate association constants were determined for appropriate inhibitors-proteases combinations by combining equal-molar amounts of each protein (determined by titration as above) for various times from 1 second to 4 hours (as appropriate) and following the activity loss. […] Alternatively, the apparent first order rate constant was determined from the slope of a plot of log (normalized activity) vs time. The second order rate constant was calculated by dividing the apparent first order rate constant by the PN-1 (or variant) concentration used.
# Thrombin [2] = molecular target: T1, Thrombin (Homo sapiens, UniProt P00734); assay: thrombin inhibition activity assay (D.4), specific activity; format: biochemical; conditions: for ACTIVITY, AFTER PEG MODIFICATION: after cysteine-PEGylation with Maleimido-PEG; for REL TO WT, BEFORE PEG MODIFICATION: activity relative to wild type PN-1; for REL TO ACTIVITY BEFORE PEG, AFTER PEG MODIFICATION: cysteine-PEGylated protein relative to same protein before PEGylation
# Experimental: Refolded or soluble protein was tested for capacity to inhibit thrombin in a standard assay. Briefly, serial 2-fold dilutions of PN-1 variant were added to microtiter plate wells (50 μl/well), followed by 50 μl of a 30 μg/ml heparin solution, followed by 1 NIH unit of thrombin in 50 μl. These were allowed to incubate at 25° C. for 15 minutes. Residual thrombin activity was measured by the addition of 50 μl S-2238 (Kabi Pharmaceuticals) at 0.625 mg/ml. PN-1 variants were tested for their ability to inhibit urokinase using the substrate S-2444, plasmin using the substrate S-2390, tPA using the substrate S2288, Factor Xa using the substrate S-2222 or S-2765, kallikrein using the substrate S-2302, human neutrophil elastase using s-AAPV-pna (Sigma), cathepsin G using s-AAPF-pna (Sigma) in a similar manner, with or without the addition of heparin.
# Each of the PN-1 site-directed mutant proteins, as well as wild type PN-1, were modified by cysteine-PEGylation using the protocol described in F.2. The activity of wild type PN-1, each of the PN-1 site-directed mutants, and the cysteine-PEGylated wild type and mutant proteins was determined using the assay described in D.4.
# E. coli = assay: bactericidal effect of PN-1 added to E. coli; format: cell-based; conditions: native PN-1 added to E. coli
# Experimental: Alternatively, PN-1 can be generated in a soluble form within E. coli by adjusting the fermentation conditions. This procedure provides a greater yield of soluble PN-1 as the fermentation temperature is decreased from 37° C. to 26° C. with a concomitant loss in inclusion body material. This is quite an unexpected finding, since PN-1 is bactericidal when native PN-1 is added to E. coli. To purify soluble PN-1, the cell supernatant from the disruption step was clarified by centrifugation and filtration or by treatment with polycations such as polyethyleneimine or Biacryl™ followed by centrifugation and filtration, and the soluble protein was purified as above. The generation of soluble material has many advantages: there is more certainty that the protein is correctly folded, there are no refolding steps, there is greater reproducibility from batch to batch.
# Thrombin [3] = molecular target: T1, Thrombin; conditions: background statement; cited from earlier work
# Cathepsin G = conditions: background statement; cited from earlier work
# [4] = test system: human neutrophil elastase; conditions: background statement; cited from earlier work
# [5] = serum half-life after tail vein injection, sandwich ELISA; conditions: rat
# From the text: The PN-1 variant N99C;N140C was PEGylated by reaction with the Maleimido-PEG reagent as described above in section G.2. Small scale reactions were first performed to determine the excess of Maleimido-PEG reagent required to drive the reaction to completion, i.e., to PEGylate both the N99C and N140C sites of the protein. The final PEGylation reaction contained about a 3-fold excess of Maleimido-PEG over the amount of N99C;N140C protein in the reaction mixture. Cysteine-PEGylated protein was purified by ion exchange chromatography as described in Section D3 above with an additional final Mono-S ion exchange step. The bis-modified,cysteine-PEGylated N99C;140C protein and unmodified N99C;N140C protein were resuspended in 50 mM PIPES pH 6.7, 150 mM NaCl, 10% glycerol.
# The serum half-life of the PEGylated N99C;N140C variant was compared to the half-life of the unmodified N99C;N140C variant by injecting a 0.3 ml of a 3 mg/ml solution containing either the cysteine-PEGylated N99C;N140C or unmodified N99C;N140C into the tail vein of 200 g rats. At 2 min, 10 min, 30 min, 60 min, and 120 min after injection, a 0.5 ml blood sample was collected onto EDTA anticoagulant. The blood samples were centrifuged to separate plasma from blood cells, and the concentration of cysteine-PEGylated N99C;N140C or unmodified N99C;N140C determined by sandwich ELISA as described by Evans et al. (1991) J. Biol. Chem. 266:22307-22312, using a rabbit polyclonal antibody.
Molecule,inhibitory activity against elastase [1],"ACTIVITY, AFTER PEG MODIFICATION (Thrombin [2])","SPECIFIC ACTIVITY, BEFORE PEG MODIFICATION (Thrombin [2])","REL TO WT, BEFORE PEG MODIFICATION (Thrombin [2])","REL TO ACTIVITY BEFORE PEG, AFTER PEG MODIFICATION (Thrombin [2])",effect on E. coli (E. coli),acceleration of thrombin inhibition in the presence of heparin (Thrombin [3]),inhibition of cathepsin G (Cathepsin G),inhibition of elastase [4],"REL TO WT, AFTER PEG MODIFICATION (Thrombin [2]; cysteine-PEGylated protein relative to wild type PN-1)",t1/2 (serum half-life) ([5]; tail vein injection),"total administered amount present in the blood stream ([5]; tail vein injection, 60 min time point)",change of specific activity with increasing PEGylation reagent in reaction mixture (FIG. 4) (Thrombin [2]; increasing ratio of PEG reagent to protein),activity retained relative to unmodified PN-1 (Thrombin [2]; reacted at a ratio of 3:1 Maleimido-PEG to protein),enhancement of t1/2 by cysteine-PEGylation ([5]; in vivo),"total administered amount present in the blood stream ([5]; in vivo, 60 min)","t1/2 (serum half-life) ([5]; in vivo, iv)"
"PN-1 (protein, UniProt P07093 20-398, looked up) Glia-derived nexin: SHFNPLSLEELGSNTGIQVFNQIVKSRPHDNIVISPHGIASVLGMLQLGADGRTKKQLAMVMRYGVNGVGKILKKINKAIVSKKNKDIVTVANAVFVKNASEIEVPFVTRNKDVFQCEVRNVNFEDPASACDSINAWVKNETRDMIDNLLSPDLIDGVLTRLVLVNAVYFKGLWKSRFQPENTKKRTFVAADGKSYQVPMLAQLSVFRCGSTSAPNDLWYNFIELPYHGESISMLIALPTESSTPLSAIIPHISTKTIDSWMSIMVPKRVQVILPKFTAVAQTDLKEPLKVLGITDMFDSSKANFAKITTGSENLHVSHILQKAKIEVSEDGTKASAATTAILIARSSPPWFIVDRPFLFFIRHNPTGAVLFMGQINKP",no inhibitory activity against elastase,0.017 NIH units of thrombin inhibited per μg PN1 (variant),0.50 NIH units of thrombin inhibited per μg PN1 (variant),1,0.03,bactericidal,50-100 fold,does not inhibit,does not inhibit,–,–,–,–,–,–,–,–
"N99C;N140C (protein, UniProt P07093 20-398, looked up, variant N99C N140C) Glia-derived nexin: SHFNPLSLEELGSNTGIQVFNQIVKSRPHDNIVISPHGIASVLGMLQLGADGRTKKQLAMVMRYGVNGVGKILKKINKAIVSKKNKDIVTVANAVFVKCASEIEVPFVTRNKDVFQCEVRNVNFEDPASACDSINAWVKCETRDMIDNLLSPDLIDGVLTRLVLVNAVYFKGLWKSRFQPENTKKRTFVAADGKSYQVPMLAQLSVFRCGSTSAPNDLWYNFIELPYHGESISMLIALPTESSTPLSAIIPHISTKTIDSWMSIMVPKRVQVILPKFTAVAQTDLKEPLKVLGITDMFDSSKANFAKITTGSENLHVSHILQKAKIEVSEDGTKASAATTAILIARSSPPWFIVDRPFLFFIRHNPTGAVLFMGQINKP",–,0.40 NIH units of thrombin inhibited per μg PN1 (variant),0.20 NIH units of thrombin inhibited per μg PN1 (variant),0.40,2,–,–,–,–,0.80,10 to 12 min,less than 3%,–,–,–,–,–
"cysteine-PEGylated N99C;N140C: N99C;N140C PN-1 variant PEGylated at cysteines by reaction with Maleimido-PEG (PEG MW about 5,000) (conjugate, UniProt P07093 20-398, looked up, variant N99C N140C, cysteine-linked maleimido-PEG 5 kDa) Glia-derived nexin: SHFNPLSLEELGSNTGIQVFNQIVKSRPHDNIVISPHGIASVLGMLQLGADGRTKKQLAMVMRYGVNGVGKILKKINKAIVSKKNKDIVTVANAVFVKCASEIEVPFVTRNKDVFQCEVRNVNFEDPASACDSINAWVKCETRDMIDNLLSPDLIDGVLTRLVLVNAVYFKGLWKSRFQPENTKKRTFVAADGKSYQVPMLAQLSVFRCGSTSAPNDLWYNFIELPYHGESISMLIALPTESSTPLSAIIPHISTKTIDSWMSIMVPKRVQVILPKFTAVAQTDLKEPLKVLGITDMFDSSKANFAKITTGSENLHVSHILQKAKIEVSEDGTKASAATTAILIARSSPPWFIVDRPFLFFIRHNPTGAVLFMGQINKP",–,–,–,–,–,–,–,–,–,–,–,–,increased with an increasing amount of the Maleimido-PEG reagent,at least 100%,about 6 fold,55-60%,60 to 80 min
